Test results from patent US11795460B2, “Compositions and methods for TTR gene editing and treating ATTR amyloidosis” (Intellia Therapeutics, Inc., priority 2017, dated 2023).
Strand notation (5' to 3'): a small letter for the sugar, then the base; units joined by * are phosphorothioate-linked, units joined directly phosphodiester-linked; [ ] holds rarer units or linkages, { } end groups; capitals alone tell only the bases. m = 2'-O-methyl; r = 2'-OH (RNA)

Legend:
TTR = TTR editing in primary human hepatocytes transfected with Spy Cas9 protein and sgRNAs (Table 12); format: cell-based; conditions: primary human hepatocytes transfected with Spy Cas9 protein (RNP) and sgRNAs
Protocol: Primary liver hepatocytes. Primary human liver hepatocytes (PHH) and primary cynomolgus liver hepatocytes (PCH) (Gibco) were cultured per the manufacturer's protocol (Invitrogen, protocol 11.28.2012). In brief, the cells were thawed and resuspended in hepatocyte thawing medium with supplements (Gibco, Cat. CM7000) followed by centrifugation at 100 g for 10 minutes for human and 80 g for 4 minutes for cyno. The supernatant was discarded and the pelleted cells resuspended in hepatocyte plating medium plus supplement pack (Invitrogen, Cat. A1217601 and CM3000). Cells were counted and plated on Bio-coat collagen I coated 96-well plates (ThermoFisher, Cat. 877272) at a density of 33,000 cells/well for human or 60,000 cells/well for cyno (or 65,000 cells/well when assaying effects on TTR protein, described further below). Plated cells were allowed to settle and adhere for 6 or 24 hours in a tissue culture incubator at 37° C. and 5% CO2 atmosphere. After incubation cells were checked for monolayer formation and media was replaced with hepatocyte culture medium with serum-free supplement pack (Invitrogen, Cat. A1217601 and CM4000).
[…] formation was performed prior to electroporation or transfection of Spy Cas9 protein loaded with guide RNAs (RNPs) onto cells. For dual guide (dgRNAs), individual crRNA and trRNA was pre-annealed by mixing equivalent amounts of reagent and incubating at 95° C. for 2 min and cooling to room temperature. Single guide (sgRNAs) were boiled at 95° C. for 2 min and cooling to room temperature. The boiled dgRNA or sgRNA was incubated with Spy Cas9 protein in Optimem for 10 minutes at room temperature to form a ribonucleoprotein (RNP) complex.
For RNP lipoplex transfections, cells were transfected with Lipofectamine RNAiMAX (ThermoFisher, Cat. 13778150) per the manufacturer's protocol. Cells were transfected with an RNP containing Spy Cas9 (10 nM), individual guide (10 nM), tracer RNA (10 nM), Lipofectamine RNAiMAX (1.0 μL/well) and OptiMem. RNP formation was performed as described above.
Transfected cells were harvested post-transfection at 24, 48, or 72 hours. The genomic DNA was extracted from each well of a 96-well plate using 50 μL/well BuccalAmp DNA Extraction solution (Epicentre, Cat. QE09050) per manufacturer's protocol. All DNA samples were subjected to PCR and subsequent NGS analyses, as described herein.
To quantitatively determine the efficiency of editing at the target location in the genome, sequencing was utilized to identify the presence of insertions and deletions introduced by gene editing.
Primers were designed around the target site within the gene of interest (e.g. TTR), and the genomic area of interest was amplified.
Additional PCR was performed per the manufacturer's protocols (Illumina) to add chemistry for sequencing. The amplicons were sequenced on an Illumina MiSeq instrument. The reads were aligned to a reference genome (e.g., the human reference genome (hg38), the cynomologus reference genome (mf5), the rat reference genome (rn6), or the mouse reference genome (mm10)) after eliminating those having low quality scores. The resulting files containing the reads were mapped to the reference genome (BAM files), where reads that overlapped the target region of interest were selected and the number of wild type reads versus the number of reads which contain an insertion, substitution, or deletion was calculated.
The editing percentage (e.g., the “editing efficiency” or “percent editing” or “indel frequency”) is defined as the total number of sequence reads with insertions/deletions (“indels”) or substitutions over the total number of sequence reads, including wild type.
Guides in modified sgRNA format targeting human and/or cyno TTR were delivered to primary human hepatocytes and primary cyno hepatocytes as described in Example 1. […]

TTR mRNA = TTR mRNA knockdown in primary human hepatocytes by quantitative PCR (Tables 34, 35); format: cell-based; conditions: TTR mRNA in PHH, 96 hours after treatment, vs untreated control
Protocol: In one experiment, PHH were cultured and treated with LNPs comprising Cas9 mRNA (SEQ ID NO:1) and a gRNA of interest (See FIG. 29, Table 34), as described in Example 4. The LNPs were prepared using the cross-flow procedure described above and purified and concentrated using PD-10 columns and Amicon centrifugal filter units, respectively. The LNPs were formulated with an N:P ratio of 6.0 and contained Lipid A, Cholesterol, DSPC, and PEG2k-DMG in a 50:38:9:2 molar ratio, respectively. The LNPs comprised a gRNA:mRNA ratio of 1:2, and the cells were treated at a dose of 300 ng (with respect to the amount of mRNA cargo delivered).
(§1) Ninety-six (96) hours following LNP treatment (with biological triplicates for each condition), mRNA was purified from PHH cells using the Dynabeads mRNA DIRECT Kit (ThermoFisher Scientific) according to the manufacturer's protocol. Reverse Transcription (RT) was performed with Maxima reverse transcriptase (ThermoFisher Scientific) and a poly-dT primer. The resulting cDNA was purified with Ampure XP Beads (Agencourt). For Quantitative PCR, 2% of the purified cDNA was amplified with Taqman Fast Advanced Mastermix and 3 Taqman probe sets, TTR (Assay ID: Hs00174914_m1), GAPDH (Assay ID: Hs02786624_g1), and PPIB (Assay ID: Hs00168719_m1). The assays were run on the QuantStudio 7 Flex Real Time PCR System according to the manufacturer's instructions (Life Technologies). Relative expression of TTR mRNA was calculated by normalizing to the endogenous controls (GAPDH and PPIB) individually, and then averaged.
In a separate experiment, TTR mRNA knockdown was evaluated following treatment with LNPs comprising G000480, G000486, and G000502. The LNPs were formulated and PHH were cultured and treated with the LNPs, each as described in the experiment above in this Example with the exception that the cells were treated at a dose of 100 ng (with respect to the amount of mRNA cargo delivered).
as §1, with “(single treatment” for “(with biological triplicates”, “the High Capacity cDNA Reverse Transcription Kit” for “Maxima reverse transcriptase”, “according to the manufacturer's instructions.” for “and a poly-dT primer. The resulting cDNA was purified with Ampure XP Beads (Agencourt).”, “the” for “the purified”

[1] = LNP dose 300 ng mRNA cargo, gRNA:mRNA 1:2, biological triplicates

Molecule | Avg % Deletion (TTR) [%] | Avg % Edit (TTR) [%] | Avg % Insert (TTR) [%] | Avg % Knockdown (TTR mRNA; [1]) [%] | Avg % Knockdown (TTR mRNA; LNP dose 100 ng mRNA cargo, separate experiment) [%]
G000494: TTR sgRNA modified sequence, Human, SEQ ID No. 101; guide sequence of CR003360 (nucleic acid) guide: mG*mU*mG*rArGrUrCrUrGrGrArGrArGrCrUrGrCrArUrGrUrUrUrUrArGrAmGmCmUmAmGmAmAmAmUmAmGmCrArArGrUrUrArArArArUrArArGrGrCrUrArGrUrCrCrGrUrUrArUrCrAmAmCmUmUmGmAmAmAmAmAmGmUmGmGmCmAmCmCmGmAmGmUmCmGmGmUmGmCmU*mU*mU*mU | 0.77 | 62.23 | 61.47 | 91.15 | 
G000488: TTR sgRNA modified sequence, Human, SEQ ID No. 95; guide sequence of CR003346 (nucleic acid) guide: mA*mA*mA*rGrUrUrCrUrArGrArUrGrCrUrGrUrCrCrGrGrUrUrUrUrArGrAmGmCmUmAmGmAmAmAmUmAmGmCrArArGrUrUrArArArArUrArArGrGrCrUrArGrUrCrCrGrUrUrArUrCrAmAmCmUmUmGmAmAmAmAmAmGmUmGmGmCmAmCmCmGmAmGmUmCmGmGmUmGmCmU*mU*mU*mU | 35.00 | 61.27 | 26.30 | 92.77 | 
G000571: TTR sgRNA modified sequence, Human, SEQ ID No. 112; guide sequence of CR005301 (nucleic acid) guide: mG*mU*mC*rArCrArGrArArArCrArCrUrCrArCrCrGrUrGrUrUrUrUrArGrAmGmCmUmAmGmAmAmAmUmAmGmCrArArGrUrUrArArArArUrArArGrGrCrUrArGrUrCrCrGrUrUrArUrCrAmAmCmUmUmGmAmAmAmAmAmGmUmGmGmCmAmCmCmGmAmGmUmCmGmGmUmGmCmU*mU*mU*mU |  |  |  | 96.17 | 
G000480: TTR sgRNA modified sequence, Human, SEQ ID No. 87; guide sequence of CR003353 (nucleic acid) guide: mA*mA*mA*rGrGrCrUrGrCrUrGrArUrGrArCrArCrCrUrGrUrUrUrUrArGrAmGmCmUmAmGmAmAmAmUmAmGmCrArArGrUrUrArArArArUrArArGrGrCrUrArGrUrCrCrGrUrUrArUrCrAmAmCmUmUmGmAmAmAmAmAmGmUmGmGmCmAmCmCmGmAmGmUmCmGmGmUmGmCmU*mU*mU*mU | 4.70 | 81.80 | 77.15 | 95.19 | 95.61
G000568: TTR sgRNA modified sequence, Human, SEQ ID No. 110; guide sequence of CR003391 (nucleic acid) guide: mG*mG*mC*rUrGrUrCrGrUrCrArCrCrArArUrCrCrCrArGrUrUrUrUrArGrAmGmCmUmAmGmAmAmAmUmAmGmCrArArGrUrUrArArArArUrArArGrGrCrUrArGrUrCrCrGrUrUrArUrCrAmAmCmUmUmGmAmAmAmAmAmGmUmGmGmCmAmCmCmGmAmGmUmCmGmGmUmGmCmU*mU*mU*mU |  |  |  | 53.44 | 
G000489: TTR sgRNA modified sequence, Human, SEQ ID No. 96; guide sequence of CR003344 (nucleic acid) guide: mU*mU*mU*rGrArCrCrArUrCrArGrArGrGrArCrArCrUrGrUrUrUrUrArGrAmGmCmUmAmGmAmAmAmUmAmGmCrArArGrUrUrArArArArUrArArGrGrCrUrArGrUrCrCrGrUrUrArUrCrAmAmCmUmUmGmAmAmAmAmAmGmUmGmGmCmAmCmCmGmAmGmUmCmGmGmUmGmCmU*mU*mU*mU | 9.43 | 60.17 | 51.07 | 91.85 | 
G000572: TTR sgRNA modified sequence, Human, SEQ ID No. 113; guide sequence of CR003385 (nucleic acid) guide: mC*mC*mC*rCrUrArCrUrCrCrUrArUrUrCrCrArCrCrArGrUrUrUrUrArGrAmGmCmUmAmGmAmAmAmUmAmGmCrArArGrUrUrArArArArUrArArGrGrCrUrArGrUrCrCrGrUrUrArUrCrAmAmCmUmUmGmAmAmAmAmAmGmUmGmGmCmAmCmCmGmAmGmUmCmGmGmUmGmCmU*mU*mU*mU |  |  |  | 55.92 | 
G000570: TTR sgRNA modified sequence, Human, SEQ ID No. 111; guide sequence of CR003347 (nucleic acid) guide: mC*mA*mU*rUrGrArUrGrGrCrArGrGrArCrUrGrCrCrUrGrUrUrUrUrArGrAmGmCmUmAmGmAmAmAmUmAmGmCrArArGrUrUrArArArArUrArArGrGrCrUrArGrUrCrCrGrUrUrArUrCrAmAmCmUmUmGmAmAmAmAmAmGmUmGmGmCmAmCmCmGmAmGmUmCmGmGmUmGmCmU*mU*mU*mU |  |  |  | 93.38 | 
G000481: TTR sgRNA modified sequence, Human, SEQ ID No. 88; guide sequence of CR003345 (nucleic acid) guide: mU*mC*mU*rArGrArArCrUrUrUrGrArCrCrArUrCrArGrGrUrUrUrUrArGrAmGmCmUmAmGmAmAmAmUmAmGmCrArArGrUrUrArArArArUrArArGrGrCrUrArGrUrCrCrGrUrUrArUrCrAmAmCmUmUmGmAmAmAmAmAmGmUmGmGmCmAmCmCmGmAmGmUmCmGmGmUmGmCmU*mU*mU*mU | 19.43 | 46.90 | 27.77 | 91.39 | 
G000482: TTR sgRNA modified sequence, Human, SEQ ID No. 89; guide sequence of CR003365 (nucleic acid) guide: mU*mG*mU*rArGrArArGrGrGrArUrArUrArCrArArArGrGrUrUrUrUrArGrAmGmCmUmAmGmAmAmAmUmAmGmCrArArGrUrUrArArArArUrArArGrGrCrUrArGrUrCrCrGrUrUrArUrCrAmAmCmUmUmGmAmAmAmAmAmGmUmGmGmCmAmCmCmGmAmGmUmCmGmGmUmGmCmU*mU*mU*mU | 10.10 | 66.67 | 56.57 | 82.31 | 
G000499: TTR sgRNA modified sequence, Human, SEQ ID No. 106; guide sequence of CR005303 (nucleic acid) guide: mU*mG*mA*rArUrCrCrArArGrUrGrUrCrCrUrCrUrGrArGrUrUrUrUrArGrAmGmCmUmAmGmAmAmAmUmAmGmCrArArGrUrUrArArArArUrArArGrGrCrUrArGrUrCrCrGrUrUrArUrCrAmAmCmUmUmGmAmAmAmAmAmGmUmGmGmCmAmCmCmGmAmGmUmCmGmGmUmGmCmU*mU*mU*mU | 1.17 | 66.40 | 65.23 | 91.38 | 
